The source of these data is patent publication US20260049143A1 (KYMAB, published 2026).

Broadly, the EC50 is the concentration at which the effect is half-maximal. High values mean lower potency in that assay, low ones higher potency in that assay. One may read the IC50 as the concentration needed to halve the response being measured. High values mean lower potency, low ones higher potency.

Assay [1] deals with T1, human ICOS-mFc (Chimerigen) (human, UniProt Q9Y6W8 21-140, limits assumed).
T1 construct: Bought fusion; also called hICOS; recombinant human ICOS protein; not shown: mouse Fc
T1 sequence: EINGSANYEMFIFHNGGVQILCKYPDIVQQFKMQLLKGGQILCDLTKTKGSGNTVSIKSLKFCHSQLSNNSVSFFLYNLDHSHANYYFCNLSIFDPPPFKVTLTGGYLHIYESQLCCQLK
Kind of assay: DELFIA ELISA, coated human ICOS-mFc, N=2. As for the experimental part: (§1) Recombinant ICOS proteins, human ICOS-mFc or mouse ICOS-mFc (Chimerigen) were diluted in 1×PBS and added to Black Hi-bind plates (Griener) at 1 μg/ml, 50 μl/well. Recombinant PD-L1 proteins, human PD-L1-Flag-His or mouse-His were diluted in 1×PBS and added to Black Hi-bind plates (Griener) at 4 μg/ml, 50 μl/well. The plates were left overnight at 4° C. The next day plates were washed 3× with 300 μl/well of 1×PBS+0.1% Tween and blocked with 200 μl/well of 1×PBS+1% BSA blocking buffer for 1 hr at RT on a plate shaker. Plates were washed 3× with 300 μl/well of 1×PBS+0.1% Tween.
(§2) However, human-PD-L1 mAb² antibodies were diluted in 1×PBS+0.1% BSA buffer and diluted 1 in 2 from a starting working concentration of 0.066 μM over an 11 point titration. Titrated antibodies were added to the plates, 50 μl/well and left to incubate for 1 hr at R.T on a plate shaker. Plates were washed 3× with 300 μl/well of 1×PBS+0.1% Tween.
(§3) DELFIA® Eu-labelled Anti-human IgG(Perkin-Elmer) was diluted 1:500 in DELFIA Assay buffer (Perkin-Elmer) and added to the assay plate (50 μl/well), left to incubate for 1 hr at RT on a plate shaker. […] After incubation, assay was read on Envision plate reader (Perkin Elmer), Time-resolved fluorescence (TRF) was measured at 615 nm.
In general terms: An ELISA detects its analyte on a solid surface through an enzyme-linked reagent.

In assay [2] the target is T2, mouse ICOS-mFc (Chimerigen) (mouse, UniProt Q9WVS0 21-141, limits assumed).
T2 construct: Bought fusion; also called mICOS; recombinant mouse ICOS protein; not shown: mouse Fc
T2 sequence: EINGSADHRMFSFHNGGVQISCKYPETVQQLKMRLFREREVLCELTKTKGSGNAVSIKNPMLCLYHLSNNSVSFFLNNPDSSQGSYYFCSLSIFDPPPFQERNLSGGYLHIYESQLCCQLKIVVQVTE
Kind of assay: DELFIA ELISA, coated mouse ICOS-mFc, mean (only N=1 kept). The procedure: as §1, §2, §3

Assay [3] concerns the target T2, mouse ICOS-mFc (Chimerigen). Put plainly: HTRF neutralisation of mouse B7-H2 binding to mouse ICOS-mFc, n2. The procedure: (§4) 5 μl of human ICOS-mFc (Chimerigen) at 20 nM (5 nM final) or 5 μl of mouse ICOS-mFc (Chimerigen) at 4 nM (1 nM final) were added to relevant assay wells. Plate was incubated for 1 hour (hr) at room temperature (RT).
(§5) After incubation, assay was read on Envision plate reader (Perkin Elmer) using a standard HTRF protocol. 620 nm and 665 nm channel values were exported to Microsoft Excel and % Delta-F and % Neutralisation calculations performed. Titration curves and IC50 values [M] were plotted using Graphpad (Prism). IC50 values were calculated by first transforming the data using equation X=Log(X). The transformed data was then fitted using nonlinear regression, using fitting algorithm, log (inhibitor) vs. response-variable slope (four parameters).
For orientation: In TR-FRET formats the signal depends on donor and acceptor labels being close together.

Assay [4] shares this target. Put plainly: HTRF neutralisation of mouse B7-H2 binding to mouse ICOS-mFc, n3. The procedure: as §4, §5
For assay [5] the target is unchanged. Kind of assay: HTRF neutralisation of mouse B7-H2 binding to mouse ICOS-mFc, mean as told in text (table prints 5.07). As for the experimental part: as §5
For assay [6] the target is unchanged. Kind of assay: DELFIA ELISA, coated mouse ICOS-mFc, N=3. As for the experimental part: as §1, §2, §3
For assay [7] the target is unchanged. Kind of assay: DELFIA ELISA, coated mouse ICOS-mFc, mean. As for the experimental part:
as §1, §2, §3

B1: STIM001_457 (bispecific antibody, V domains shown, not shown: a dimerising Fc or GST)
VH: QVQVVQSGAEVKKPGASVKVSCKASGYTFSTFGITWVRQAPGQGLEWMGWISAYNGDTNYAQNLQGRVIMTTDTSTSTAYMELRSLRSDDTAVYYCARSSGHYYYYGMDVWGQGTTVTVSS
VL: DIVMTQSPLSLPVTPGEPASISCRSSQSLLHSNEYNYLDWYLQKPGQSPQLLIFLGSNRASGVPDRFSGSGSGTDFTLKITRVEAEDVGIYYCMQSLQTPLTFGGGTKVEIK
notes: mAb^2 IgG1; also called STIM001_457 mAb^2
In the case of B1, the EC50 in assay [1] amounted to 15.3 nM; in assay [2], 23.6 nM. Further, the values for the half-inhibitory concentration (IC50) in assay [3], in assay [4] and in assay [5] were 5.49 nM, 6.32 nM and 5.16 nM, respectively.

B2: STIM003_457 (bispecific antibody, V domains shown, not shown: a dimerising Fc or GST)
VH: EVQLVESGGGVVRPGGSLRLSCVASGVTFDDYGMSWVRQAPGKGLEWVSGINWNGGDTDYSDSVKGRFTISRDNAKNSLYLQMNSLRAEDTALYYCARDFYGSGSYYHVPFDYWGQGILVTVSS
VL: EIVLTQSPGTLSLSPGERATLSCRASQSVSRSYLAWYQQKRGQAPRLLIYGASSRATGIPDRFSGDGSGTDFTLSISRLEPEDFAVYYCHQYDMSPFTFGPGTKVDIK
notes: mAb^2 IgG1; also called ST1M003_457; STIM003_457 mAb^2
For B2, the 50% effective concentration (EC50) turned out to be 0.288 nM in assay [6] and 0.289 nM in assay [7].
